US20020123091

Tested on: PRO256 polypeptide
Sequence (chain, as listed by the source): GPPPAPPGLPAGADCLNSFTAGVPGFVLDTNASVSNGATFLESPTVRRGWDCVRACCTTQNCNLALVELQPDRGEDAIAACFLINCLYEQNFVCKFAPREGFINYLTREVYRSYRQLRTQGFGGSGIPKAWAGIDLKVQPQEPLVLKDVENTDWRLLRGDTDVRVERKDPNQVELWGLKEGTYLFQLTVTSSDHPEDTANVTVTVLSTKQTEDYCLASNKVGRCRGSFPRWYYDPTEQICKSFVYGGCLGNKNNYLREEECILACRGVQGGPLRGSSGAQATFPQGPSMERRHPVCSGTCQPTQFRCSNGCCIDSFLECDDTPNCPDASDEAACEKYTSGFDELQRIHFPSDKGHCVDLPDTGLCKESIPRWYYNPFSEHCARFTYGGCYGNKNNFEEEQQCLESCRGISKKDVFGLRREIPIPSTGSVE

human kallikrein (Haematologic Technologies), sequence (chain, as listed by the source): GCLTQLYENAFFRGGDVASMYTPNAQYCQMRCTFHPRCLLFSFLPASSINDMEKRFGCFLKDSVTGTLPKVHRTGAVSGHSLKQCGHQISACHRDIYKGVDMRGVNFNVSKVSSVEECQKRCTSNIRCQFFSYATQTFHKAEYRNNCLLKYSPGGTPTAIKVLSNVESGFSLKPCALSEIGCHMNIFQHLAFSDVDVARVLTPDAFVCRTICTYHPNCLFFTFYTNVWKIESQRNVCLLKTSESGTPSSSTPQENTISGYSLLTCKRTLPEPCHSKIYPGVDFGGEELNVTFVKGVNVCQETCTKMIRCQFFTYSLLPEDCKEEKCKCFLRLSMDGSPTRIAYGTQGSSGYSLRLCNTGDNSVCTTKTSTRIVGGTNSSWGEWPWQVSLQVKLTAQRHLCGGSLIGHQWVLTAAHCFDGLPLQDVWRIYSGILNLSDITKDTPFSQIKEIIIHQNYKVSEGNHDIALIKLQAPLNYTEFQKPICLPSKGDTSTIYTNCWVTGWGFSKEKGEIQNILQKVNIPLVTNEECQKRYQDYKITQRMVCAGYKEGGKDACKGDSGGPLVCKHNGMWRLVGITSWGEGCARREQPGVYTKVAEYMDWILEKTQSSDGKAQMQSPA

With “human kallikrein (Haematologic Technologies)” as the substance, how does the “kallikrein (40 nM) conversion of ^125I-scHGF into its two chain form, SDS-PAGE/autoradiography, PRO256 at 1 µM” value read?
The value was “In the presence of PRO256, kallikrein conversion of ^125I-scHGF into its two chain form is inhibited over the 4 hour incubation period compared with the control”.
